Measurements as given in patent US20220380459A1 (DRAGONFLY THERAPEUTICS, published 2022).

Target: T1, human CD33 extracellular domain (human, UniProt P20138 18-259)
T1 construct: soluble monomeric ECD; also called human CD33 ECD; hCD33
Assay: BLI Octet, IgG loaded;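 also: IgGs captured on AHC biosensors, exposed to 100 nM antigen for 3 min association then 3 min dissociation in buffer, kinetics fitted with a 1:1 binding model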
Description: Briefly, ForteBio affinity measurements were performed by loading IgGs on-line onto AHC sensors. Sensors were equilibrated off-line in assay buffer for 30 min and then monitored on-line for 60 seconds for baseline establishment. Sensors with loaded IgGs were exposed to 100 nM antigen for 3 minutes, and afterwards were transferred to assay buffer for 3 min for off-rate measurement. All kinetics were analyzed using the 1:1 binding model.

Row | Binder | Kd [nM] | koff [s⁻¹] | kon [M⁻¹ s⁻¹]
1 | ADI-11828 IgG (antibody, V domains shown, IgG; also called Ab27) VH: EVQLVESGGGLVQPGGSLRLSCAASGFTFSSYWMSWVRQAPGKGLEWVANINQDGSEVYYVDSVKGRFTISRDNAKNSLYLQMNSLRAEDTAVYYCARDVGPGIAYQGHFDYWGQGTLVTVSS VL: DIQMTQSPSSLSASVGDRVTITCRASQSIYYYLNWYQQKPGKAPKLLIYAASSRQSGVPSRFSGSGSGTDFTLTISSLQPEDFATYYCQQVYDTPLTFGGGTKVEIK | 0.81 | 0.000533 | 658000
2 | ADI-10163 IgG (antibody, V domains shown, IgG; also called Ab17) VH: QVQLQESGPGLVKPSQTLSLTCTVSGGSISSGGYYWSWIRQHPGKGLEWIGSIYYSGSTYYNPSLKSRVTISVDTSKNQFSLKLSSVTAADTAVYYCARDRLDYSYNYGMDVWGQGTTVTVSS VL: DIQMTQSPSSLSASVGDRVTITCRASQSISSYLNWYQQKPGKAPKLLIYGASSLQSGVPSRFSGSGSGTDFTLTISSLQPEDFATYYCQQVYSAPFTFGGGTKVEIK | 6.8 | – | –
3 | ADI-11826 IgG (antibody, V domains shown, IgG; also called Ab26) VH: EVQLVESGGGLVQPGGSLRLSCAASGFTFPGYWMSWVRQAPGKGLEWVANINQDGSEVYYVDSVKGRFTISRDNAKNSLYLQMNSLRAEDTAVYYCAREANYYGNVGDDYWGQGTLVTVSS VL: DIQMTQSPSSLSASVGDRVTITCRASQSIYNYLNWYQQKPGKAPKLLIYAASSTQSGVPSRFSGSGSGTDFTLTISSLQPEDFATYYCQQAFHVPITFGGGTKVEIK | 0.393 | 0.000243 | 619000
4 | ADI-10164 IgG (antibody, V domains shown, IgG; also called Ab18) VH: QVQLQESGPGLVKPSETLSLTCAVSGYSISSGYYWGWIRQPPGKGLEWIGSIYHSGSTNYNPSLKSRVTISVDTSKNQFSLKLSSVTAADTAVYYCARLPPWFGFSYFDLWGRGTLVTVSS VL: EIVLTQSPATLSLSPGERATLSCRASQSVSSYLAWYQQKPGQAPRLLIYDASNRATGIPARFSGSGSGTDFTLTISSLEPEDFAVYYCQQVDNYPPTFGGGTKVEIK | 4.3 | 0.00148 | 344000
5 | ADI-11812 IgG (antibody, V domains shown, IgG; also called Ab24) VH: QVQLVQSGAEVKKPGASVKVSCKASGYTFEIYYMHWVRQAPGQGLEWMGIINPSSGSTVYAQKFQGRVTMTRDTSTSTVYMELSSLRSEDTAVYYCARGAGYDDEDMDVWGKGTTVTVSS VL: DIQMTQSPSSVSASVGDRVTITCRASQGIDSWLAWYQQKPGKAPKLLIYAASSLQSGVPSRFSGSGSGTDFTLTISSLQPEDFATYYCQQAHSYPLTFGGGTKVEIK | 1.91 | 0.000315 | 166000
6 | ADI-10161 IgG (antibody, V domains shown, IgG; also called Ab16) VH: EVQLVESGGGLVQPGGSLRLSCAASGFTFSSYWMSWVRQAPGKGLEWVANINQDGSEKYYVDSVKGRFTISRDNAKNSLYLQMNSLRAEDTAVYYCAREGGDSWYHAFDIWGQGTMVTVSS VL: DIQMTQSPSSVSASVGDRVTITCRASQGISSWLAWYQQKPGKAPKLLIYAASNLQSGVPSRFSGSGSGTDFTLTISSLQPEDFATYYCQQKLSLPLTFGGGTKVEIK | 3.7 | 0.00217 | 587000
7 | ADI-11801 IgG (antibody, V domains shown, IgG; also called Ab4) VH: QVQLVQSGAEVKKPGASVKVSCKASGYTFSDYYMHWVRQAPGQGLEWMGMINPSWGSTSYAQKFQGRVTMTRDTSTSTVYMELSSLRSEDTAVYYCAREAADGFVGERYFDLWGRGTLVTVSS VL: not shown | 0.457 | 0.0002 | 438000
8 | ADI-10173 IgG (antibody, V domains shown, IgG; also called Ab22) VH: QVQLVQSGAEVKKPGASVKVSCKASGYTFTSYYMHWVRQAPGQGLEWMGIINPSGGSTTYAQKFQGRVTMTRDTSTSTVYMELSSLRSEDTAVYYCAREAADGFVGERYFDLWGRGTLVTVSS VL: not shown | 9.7 | – | –

Results, then the binder that gave them:

Row | Kd [nM] | koff [s⁻¹] | kon [M⁻¹ s⁻¹] | Binder
9 | 0.54 | 0.000376 | 696000 | ADI-11825 IgG (antibody, V domains shown, IgG; also called Ab25) VH: EVQLVESGGGLVQPGGSLRLSCAASGFTFGGYWMSWVRQAPGKGLEWVANINQDGSEEYYVDSVKGRFTISRDNAKNSLYLQMNSLRAEDTAVYYCAREANYYGNVGDDYWGQGTLVTVSS VL: DIQMTQSPSSLSASVGDRVTITCRASQSIYNYLNWYQQKPGKAPKLLIYAASNLHSGVPSRFSGSGSGTDFTLTISSLQPEDFATYYCQQAFHVPITFGGGTKVEIK
10 | 1.2 | 0.000923 | 770000 | ADI-11830 IgG (antibody, V domains shown, IgG; also called Ab9) VH: EVQLVESGGGLVQPGGSLRLSCAASGFTFSSYWMSWVRQAPGKGLEWVANINTDGSEVYYVDSVKGRFTISRDNAKNSLYLQMNSLRAEDTAVYYCARDVGPGIAYQGHFDYWGQGTLVTVSS VL: DIQMTQSPSSLSASVGDRVTITCRASQVIYSYLNWYQQKPGKAPKLLIYAASSLKSGVPSRFSGSGSGTDFTLTISSLQPEDFATYYCQQVYDTPLTFGGGTKVEIK
11 | 5.1 | 0.00325 | 638000 | ADI-10160 IgG (antibody, V domains shown, IgG; also called Ab15) VH: EVQLVESGGGLVQPGGSLRLSCAASGFTFSSYWMSWVRQAPGKGLEWVANINQDGSEKYYVDSVKGRFTISRDNAKNSLYLQMNSLRAEDTAVYYCAREANYYGNVGDDYWGQGTLVTVSS VL: not shown
12 | 3.6 | 0.00214 | 601000 | ADI-10177 IgG (antibody, V domains shown, IgG; also called Ab2) VH: EVQLVESGGGLVQPGGSLRLSCAASGFTFSSYWMSWVRQAPGKGLEWVANIKQDGSEKYYVDSVKGRFTISRDNAKNSLYLQMNSLRAEDTAVYYCARPLNAGELDVWGQGTMVTVSS VL: DIQMTQSPSTLSASVGDRVTITCRASQSISSWLAWYQQKPGKAPKLLIYEASSLESGVPSRFSGSGSGTEFTLTISSLQPDDFATYYCQQLESYPLTFGGGTKVEIK
13 | 1.44 | 0.000229 | 159000 | ADI-11815 IgG (antibody, V domains shown, IgG; also called Ab7) VH: QVQLVQSGAEVKKPGASVKVSCKASGYTFGTYYMHWVRQAPGQGLEWMGIINPSRGSTVYAQKFQGRVTMTRDTSTSTVYMELSSLRSEDTAVYYCARGAGYDDEDMDVWGKGTTVTVSS VL: DIQMTQSPSSVSASVGDRVTITCRASQGIDSWLAWYQQKPGKAPKLLIYAASSLQSGVPSRFSGSGSGTDFTLTISSLQPEDFATYYCQQAHSYPLTFGGGTKVEIK
14 | 0.453 | 0.0002 | 441000 | ADI-11802 IgG (antibody, V domains shown, IgG; also called Ab23) VH: QVQLVQSGAEVKKPGASVKVSCKASGYTFSGYYMHWVRQAPGQGLEWMGMINPYGGSTRYAQKFQGRVTMTRDTSTSTVYMELSSLRSEDTAVYYCAREAADGFVGERYFDLWGRGTLVTVSS VL: not shown
15 | ≤ 0.575 | ≤ 0.0002 | 348000 | ADI-10159 IgG (antibody, V domains shown, IgG; also called Ab1; G59) VH: EVQLVESGGGLVQPGGSLRLSCAASGFTFSSYGMSWVRQAPGKGLEWVANIKQDGSEKYYVDSVKGRFTISRDNAKNSLYLQMNSLRAEDTAVYYCAREGGPYYDSSGYFVYYGMDVWGQGTTVTVSS VL: DIQMTQSPSTLSASVGDRVTITCRASQSISSWLAWYQQKPGKAPKLLIYDASSLESGVPSRFSGSGSGTEFTLTISSLQPDDFATYYCQQYESFPTFGGGTKVEIK
16 | 0.294 | 0.0002 | 679000 | ADI-11776 IgG (antibody, V domains shown, IgG; also called Ab3; H76) VH: EVQLLESGGGLVQPGGSLRLSCAASGFTFSKYTMSWVRQAPGKGLEWVSAIVGSGESTYFADSVKGRFTISRDNSKNTLYLQMNSLRAEDTAVYYCAREGGPYYDSSGYFVYYGMDVWGQGTTVTVSS VL: DIQMTQSPSTLSASVGDRVTITCRASQSISSWLAWYQQKPGKAPKLLIYKASSLESGVPSRFSGSGSGTEFTLTISSLQPDDFATYYCQQYDDLPTFGGGTKVEIK
